{
  "source": "patent US20250327097A1",
  "about": "“ORGANISMS PRODUCING LESS CROTONIC ACID” (Global Bioenergies, priority 2021, published 2025)",
  "molecules": {"B1": {"name": "N388M-K394R-C430N-L432F-L434W-S436N-H444V (protein)", "chain": "MFLKSLREQINLLKRQGDLRIINRPVDSYLEAAAIIRRSTETKAPVPLMTNIKGYPGCSIVGGLAALSSNPEYPLSRVAMSLGLSTTASAQSIVQYLIDGLKKTPYLPVEIDSNSAPCKQNILRGEDASLAHFPIPQVHQHDGNRYVNTWGVFIVESPDGQWCNWSIQRVQYLNDRQMIALVFPSQHISDIWEEWVKIGKPMPYALVQGCEPIVPYIAGLPLLERNVNEAEYIGALYGKGIEVVKCETHDLRVPASSEVVIEGYFAITREGVEGPFGEFAGYIPNENSLQPILSITAISWQDDPIWPVVAEGKPVDEYHTCSGIGDAAAIQNVLLTANLPVSFVWVPLYSACHLMIVSINRHWRQTHPDLTSEQLTKKVGDVIHQTRMSIKLPRIVVLDDDVDPADTESLLWALATRIHPERKRYFYESNIFPWLNCYSEEERVNRKGKRVIIDALLPENHGAISSFDYAYPDDIKQRVLMHWETDFSHD"}, "B2": {"name": "I283T-P284D-N287P-S322T-N388M-R422F-C430N-L432F-L434W-S436N-H461T-dG462 (protein)", "chain": "B1 chain with I283T, P284D, N287P, S322T, R394K, R422F, V444H, H461T"}, "B3": {"name": "I283T-P284D-N287P-S322T-N388M-E421V-C430N-L432F-L434W-S436N-dG462-A463T (protein)", "chain": "B1 chain with I283T, P284D, N287P, S322T, R394K, E421V, V444H, A463T"}, "B4": {"name": "I283T-P284D-N287P-S322T-N388M-R422F-C430N-L432F-L434W-S436N-H461V-dG462 (protein)", "chain": "B1 chain with I283T, P284D, N287P, S322T, R394K, R422F, V444H, H461V"}, "B5": {"name": "I283T-P284D-N287P-S322T-N388M-E421V-R422F-C430N-L432F-L434W-S436N-H461T-dG462-A463T (protein)", "chain": "B1 chain with I283T, P284D, N287P, S322T, R394K, E421V, R422F, V444H, H461T, A463T"}, "B6": {"name": "I283T-P284D-N287P-S322T-N388M-R422F-C430N-L432F-L434W-S436N-H461V-dG462-A463T (protein)", "chain": "B1 chain with I283T, P284D, N287P, S322T, R394K, R422F, V444H, H461V, A463T"}, "B7": {"name": "I283T-P284D-N287P-S322T-N388M-E421V-R422F-C430N-L432F-L434W-S436N-H461V-dG462-A463T (protein)", "chain": "B1 chain with I283T, P284D, N287P, S322T, R394K, E421V, R422F, V444H, H461V, A463T"}, "B8": {"name": "I283T-N285P-N287T-Q290E-S322T-N388M-K394R-C430A-L432F-L434W-S436N-dH461 (protein)", "chain": "B1 chain with I283T, N285P, N287T, Q290E, S322T, N430A, V444H"}, "B9": {"name": "I283T-P284D-N287P-S322T-N388M-E421V-C430N-L432F-L434W-S436N-H461V-dG462-A463T (protein)", "chain": "B1 chain with I283T, P284D, N287P, S322T, R394K, E421V, V444H, H461V, A463T"}, "B10": {"name": "I283T-P284D-N287P-S322T-N388M-E421V-C430N-L432F-L434W-S436N-H461T-dG462-A463T (protein)", "chain": "B1 chain with I283T, P284D, N287P, S322T, R394K, E421V, V444H, H461T, A463T"}, "B11": {"name": "I283T-P284D-N287P-S322T-N388M-E421V-C430N-L432F-L434W-S436N-dG462 (protein)", "chain": "B1 chain with I283T, P284D, N287P, S322T, R394K, E421V, V444H"}, "B12": {"name": "I283T-P284D-N287P-S322T-N388M-E421V-R422F-C430N-L432F-L434W-S436N-H461V-dG462 (protein)", "chain": "B1 chain with I283T, P284D, N287P, S322T, R394K, E421V, R422F, V444H, H461V"}, "B13": {"name": "I283T-P284D-N287P-S322T-N388M-E421V-R422F-C430N-L432F-L434W-S436N-H461T-dG462 (protein)", "chain": "B1 chain with I283T, P284D, N287P, S322T, R394K, E421V, R422F, V444H, H461T"}, "B14": {"name": "I283T-P284D-N287P-S322T-N388M-R422F-C430N-L432F-L434W-S436N-dG462-A463T (protein)", "chain": "B1 chain with I283T, P284D, N287P, S322T, R394K, R422F, V444H, A463T"}, "B15": {"name": "I283T-N285P-N287T-Q290E-S322T-N388M-K394R-C430A-L432F-L434W-S436N-dG462 (protein)", "chain": "B1 chain with I283T, N285P, N287T, Q290E, S322T, N430A, V444H"}, "B16": {"name": "N287I-N388M-K394R-C430N-L432F-L434W-S436N (protein)", "chain": "B1 chain with N287I, V444H"}, "B17": {"name": "I283T-P284D-N287P-S322T-N388M-E421V-R422F-C430N-L432F-L434W-S436N-dG462-A463T (protein)", "chain": "B1 chain with I283T, P284D, N287P, S322T, R394K, E421V, R422F, V444H, A463T"}, "B18": {"name": "N285M-N388M-K394R-C430N-L432F-L434W-S436N (protein)", "chain": "B1 chain with N285M, V444H"}, "B19": {"name": "I283T-P284D-N287P-S322T-N388M-C430N-L432F-L434W-S436N-H461T-dG462-A463T (protein)", "chain": "B1 chain with I283T, P284D, N287P, S322T, R394K, V444H, H461T, A463T"}, "B20": {"name": "I283T-P284D-N287P-S322T-N388M-E421V-C430N-L432F-L434W-S436N-H461V-dG462 (protein)", "chain": "B1 chain with I283T, P284D, N287P, S322T, R394K, E421V, V444H, H461V"}, "B21": {"name": "I283T-P284D-N287P-S322T-N388M-R422F-C430N-L432F-L434W-S436N-H461T-dG462-A463T (protein)", "chain": "B1 chain with I283T, P284D, N287P, S322T, R394K, R422F, V444H, H461T, A463T"}, "B22": {"name": "I283T-P284D-N287P-S322T-N388M-R422F-C430N-L432F-L434W-S436N-dG462 (protein)", "chain": "B1 chain with I283T, P284D, N287P, S322T, R394K, R422F, V444H"}, "B23": {"name": "I283T-N285P-N287T-Q290E-S322T-N388M-K394R-C430A-L432F-L434W-S436N-dA463 (protein)", "chain": "B1 chain with I283T, N285P, N287T, Q290E, S322T, N430A, V444H"}},
  "note": "Changes are numbered by the printed parent chain. Names and notes keep the numbering of the source.",
  "data": [
    {"test_system": "3-methylcrotonic acid", "type": "biochemical, Yersinia frederiksenii", "set-up": "key: “+” representing a low increase in activity; “++++” representing a high increase in activity", "values": [
      {"molecule": "B1", "Activity relative to WT": "+"},
      {"molecule": "B2", "Activity relative to WT": "++++"},
      {"molecule": "B3", "Activity relative to WT": "++++"},
      {"molecule": "B4", "Activity relative to WT": "++++"},
      {"molecule": "B5", "Activity relative to WT": "++++"},
      {"molecule": "B6", "Activity relative to WT": "++++"},
      {"molecule": "B7", "Activity relative to WT": "++++"},
      {"molecule": "B8", "Activity relative to WT": "++++"},
      {"molecule": "B9", "Activity relative to WT": "++++"},
      {"molecule": "B10", "Activity relative to WT": "++++"},
      {"molecule": "B11", "Activity relative to WT": "++++"},
      {"molecule": "B12", "Activity relative to WT": "++++"},
      {"molecule": "B13", "Activity relative to WT": "++++"},
      {"molecule": "B14", "Activity relative to WT": "++++"},
      {"molecule": "B15", "Activity relative to WT": "++++"},
      {"molecule": "B16", "Activity relative to WT": "+"},
      {"molecule": "B17", "Activity relative to WT": "++++"},
      {"molecule": "B18", "Activity relative to WT": "+"},
      {"molecule": "B19", "Activity relative to WT": "++++"},
      {"molecule": "B20", "Activity relative to WT": "++++"},
      {"molecule": "B21", "Activity relative to WT": "++++"},
      {"molecule": "B22", "Activity relative to WT": "++++"},
      {"molecule": "B23", "Activity relative to WT": "++++"}
    ]}
  ]
}
